How the values were obtained:
[1] = target: bovine α-thrombin (bovine)
[2] = target: bovine α-thrombin (bovine); experiment: enzyme inhibition kinetics (chromogenic substrate); 1 nM bovine α-thrombin, 0-200 µM Tos-Gly-Pro-Arg-p-nitroanilide, 0-800 nM madanin; 37 °C, 50 mM Tris-HCl pH 8.0, 50 mM NaCl, 1 mg/ml bovine serum albumin; fitted to the competitive inhibition model
[3] = target: human α-thrombin (human)

Work on “madanin-1 (mature, recombinant) (natural protein)” yielded an inhibition of thrombin amidolytic activity (%), 1 nM thrombin, 50 µM Tos-Gly-Pro-Arg-p-nitroanilide, 1 µM inhibitor, after 120 min [1] of 43.8% and a Ki [2] of 55.6 nM.
madanin-1 fragment 1-21 (peptide) showed a prolongation (fold) of thrombin time of human plasma, 10 µM fragment (17 s against 17 s); competition with fibrinogen for thrombin; species of the assay's thrombin not stated [3] of 1 fold and an inhibition of thrombin amidolytic activity (%), 1 nM thrombin, 50 µM Tos-Gly-Pro-Arg-p-nitroanilide, 1 µM fragment, after 120 min [1] of 4.6%.
Work on madanin-1 fragment 22-54 (peptide) yielded a prolongation (fold) of thrombin time of human plasma, 10 µM fragment (20 s against 17 s); competition with fibrinogen for thrombin; species of the assay's thrombin not stated [3] of 1.18 fold and an inhibition of thrombin amidolytic activity (%), 1 nM thrombin, 50 µM Tos-Gly-Pro-Arg-p-nitroanilide, 1 µM fragment, after 120 min [1] of 5.77%.
madanin-1 fragment 55-60 (peptide) was tested, and the prolongation (fold) of thrombin time of human plasma, 10 µM fragment (17 s against 17 s); competition with fibrinogen for thrombin; species of the assay's thrombin not stated [3] was 1 fold.
In the case of “madanin-2 (mature, recombinant) (natural protein)”, the inhibition of thrombin amidolytic activity (%), 1 nM thrombin, 50 µM Tos-Gly-Pro-Arg-p-nitroanilide, 1 µM inhibitor, after 120 min [1] is reported as 47.2% and the Ki [2] is reported as 31.6 nM.
madanin-2 fragment 1-21 (peptide) showed a prolongation (fold) of thrombin time of human plasma, 10 µM fragment (18 s against 17 s); competition with fibrinogen for thrombin; species of the assay's thrombin not stated [3] of 1.06 fold and an inhibition of thrombin amidolytic activity (%), 1 nM thrombin, 50 µM Tos-Gly-Pro-Arg-p-nitroanilide, 1 µM fragment, after 120 min [1] of 5.83%.
madanin-2 fragment 22-55 (peptide) gave a prolongation (fold) of thrombin time of human plasma, 10 µM fragment (18 s against 17 s); competition with fibrinogen for thrombin; species of the assay's thrombin not stated [3] of 1.06 fold and an inhibition of thrombin amidolytic activity (%), 1 nM thrombin, 50 µM Tos-Gly-Pro-Arg-p-nitroanilide, 1 µM fragment, after 120 min [1] of 6.11%.
madanin-2 fragment 56-61 (peptide) gave a prolongation (fold) of thrombin time of human plasma, 10 µM fragment (17 s against 17 s); competition with fibrinogen for thrombin; species of the assay's thrombin not stated [3] of 1 fold.

From PMC3741208
